Each block holds one binder with its values, some of them ahead of it. Numbered stars: 1 amine (or outer) side, 2 acyl side, 3 side chain; on linkers, the order of the positions; unused ones are H or OH. Square brackets hold non-standard residues; d marks the D form. Side chains are listed from the residue outwards. * marks the point of attachment. C18 diacid = O=C(O)CCCCCCCCCCCCCCCCC(=O)*; γGlu = O=C(O)[C@H](CCC(=O)[*:2])N[*:1]; Aib = CC(C)(N)C(=O)O
Experiments:
[1] = target: human glucagon-like peptide 1 receptor (GLP-1R) (human, UniProt P43220); experiment: cell-based or functional assay
[2] = target: T1, human GLP-2 receptor (hGLP2-R) (human, UniProt O95838); experiment: cell-based or functional assay
T1 sequence: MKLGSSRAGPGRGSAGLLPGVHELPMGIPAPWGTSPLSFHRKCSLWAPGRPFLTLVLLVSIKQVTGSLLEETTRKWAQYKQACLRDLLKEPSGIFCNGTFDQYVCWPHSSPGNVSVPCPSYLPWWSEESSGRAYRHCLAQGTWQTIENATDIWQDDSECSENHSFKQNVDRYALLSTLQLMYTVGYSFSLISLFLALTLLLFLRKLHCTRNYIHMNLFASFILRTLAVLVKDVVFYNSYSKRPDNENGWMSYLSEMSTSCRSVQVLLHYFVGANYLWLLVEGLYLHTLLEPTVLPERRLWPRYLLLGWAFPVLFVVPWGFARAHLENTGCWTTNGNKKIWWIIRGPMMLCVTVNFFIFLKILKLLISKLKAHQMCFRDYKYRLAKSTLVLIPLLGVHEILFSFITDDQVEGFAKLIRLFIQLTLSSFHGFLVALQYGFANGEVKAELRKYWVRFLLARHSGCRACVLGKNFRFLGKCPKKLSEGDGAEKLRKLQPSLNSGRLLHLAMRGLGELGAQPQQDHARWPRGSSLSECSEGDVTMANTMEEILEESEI

EC50 GLP-1 (nM), cAMP AlphaScreen [1]: 0.55 nM | EC50 GLP-2 (nM), cAMP AlphaScreen [2]: 0.37 nM
B2: Compound 20 (peptide)
peptide: H-H[Aib]EGTFSSELATILDK([γGlu-C18 diacid])QAARDFIAWLIEHKITD-OH
SMILES: CC[C@H](C)[C@H](NC(=O)[C@H](Cc1ccccc1)NC(=O)[C@H](CC(=O)O)NC(=O)[C@H](CCCNC(=N)N)NC(=O)[C@H](C)NC(=O)[C@H](C)NC(=O)[C@H](CCC(N)=O)NC(=O)[C@H](CCCCNC(=O)CC[C@H](NC(=O)CCCCCCCCCCCCCCCCC(=O)O)C(=O)O)NC(=O)[C@H](CC(=O)O)NC(=O)[C@H](CC(C)C)NC(=O)[C@@H](NC(=O)[C@@H](NC(=O)[C@H](C)NC(=O)[C@H](CC(C)C)NC(=O)[C@H](CCC(=O)O)NC(=O)[C@H](CO)NC(=O)[C@H](CO)NC(=O)[C@H](Cc1ccccc1)NC(=O)[C@@H](NC(=O)CNC(=O)[C@H](CCC(=O)O)NC(=O)C(C)(C)NC(=O)[C@@H](N)Cc1c[nH]cn1)[C@@H](C)O)[C@@H](C)O)[C@@H](C)CC)C(=O)N[C@@H](C)C(=O)N[C@@H](Cc1c[nH]c2ccccc12)C(=O)N[C@@H](CC(C)C)C(=O)N[C@H](C(=O)N[C@@H](CCC(=O)O)C(=O)N[C@@H](Cc1c[nH]cn1)C(=O)N[C@@H](CCCCN)C(=O)N[C@H](C(=O)N[C@H](C(=O)N[C@@H](CC(=O)O)C(=O)O)[C@@H](C)O)[C@@H](C)CC)[C@@H](C)CC

EC50 GLP-1 (nM), cAMP AlphaScreen [1]: 0.21 nM | EC50 GLP-2 (nM), cAMP AlphaScreen [2]: 0.17 nM
B3: Compound 24 (peptide)
peptide: H-H[Aib]EGSFTSELATILDK([γGlu-C18 diacid])QAARDFIAWLIEHKITD-OH
SMILES: CC[C@H](C)[C@H](NC(=O)[C@H](Cc1ccccc1)NC(=O)[C@H](CC(=O)O)NC(=O)[C@H](CCCNC(=N)N)NC(=O)[C@H](C)NC(=O)[C@H](C)NC(=O)[C@H](CCC(N)=O)NC(=O)[C@H](CCCCNC(=O)CC[C@H](NC(=O)CCCCCCCCCCCCCCCCC(=O)O)C(=O)O)NC(=O)[C@H](CC(=O)O)NC(=O)[C@H](CC(C)C)NC(=O)[C@@H](NC(=O)[C@@H](NC(=O)[C@H](C)NC(=O)[C@H](CC(C)C)NC(=O)[C@H](CCC(=O)O)NC(=O)[C@H](CO)NC(=O)[C@@H](NC(=O)[C@H](Cc1ccccc1)NC(=O)[C@H](CO)NC(=O)CNC(=O)[C@H](CCC(=O)O)NC(=O)C(C)(C)NC(=O)[C@@H](N)Cc1c[nH]cn1)[C@@H](C)O)[C@@H](C)O)[C@@H](C)CC)C(=O)N[C@@H](C)C(=O)N[C@@H](Cc1c[nH]c2ccccc12)C(=O)N[C@@H](CC(C)C)C(=O)N[C@H](C(=O)N[C@@H](CCC(=O)O)C(=O)N[C@@H](Cc1c[nH]cn1)C(=O)N[C@@H](CCCCN)C(=O)N[C@H](C(=O)N[C@H](C(=O)N[C@@H](CC(=O)O)C(=O)O)[C@@H](C)O)[C@@H](C)CC)[C@@H](C)CC

EC50 GLP-1 (nM), cAMP AlphaScreen [1]: 0.094 nM | EC50 GLP-2 (nM), cAMP AlphaScreen [2]: 0.33 nM
B5: Compound 25 (peptide)
peptide: H-H[Aib]EGTFTSELATILDK([γGlu-C18 diacid])QAARDFIAWLIEHKITD-OH
SMILES: CC[C@H](C)[C@H](NC(=O)[C@H](Cc1ccccc1)NC(=O)[C@H](CC(=O)O)NC(=O)[C@H](CCCNC(=N)N)NC(=O)[C@H](C)NC(=O)[C@H](C)NC(=O)[C@H](CCC(N)=O)NC(=O)[C@H](CCCCNC(=O)CC[C@H](NC(=O)CCCCCCCCCCCCCCCCC(=O)O)C(=O)O)NC(=O)[C@H](CC(=O)O)NC(=O)[C@H](CC(C)C)NC(=O)[C@@H](NC(=O)[C@@H](NC(=O)[C@H](C)NC(=O)[C@H](CC(C)C)NC(=O)[C@H](CCC(=O)O)NC(=O)[C@H](CO)NC(=O)[C@@H](NC(=O)[C@H](Cc1ccccc1)NC(=O)[C@@H](NC(=O)CNC(=O)[C@H](CCC(=O)O)NC(=O)C(C)(C)NC(=O)[C@@H](N)Cc1c[nH]cn1)[C@@H](C)O)[C@@H](C)O)[C@@H](C)O)[C@@H](C)CC)C(=O)N[C@@H](C)C(=O)N[C@@H](Cc1c[nH]c2ccccc12)C(=O)N[C@@H](CC(C)C)C(=O)N[C@H](C(=O)N[C@@H](CCC(=O)O)C(=O)N[C@@H](Cc1c[nH]cn1)C(=O)N[C@@H](CCCCN)C(=O)N[C@H](C(=O)N[C@H](C(=O)N[C@@H](CC(=O)O)C(=O)O)[C@@H](C)O)[C@@H](C)CC)[C@@H](C)CC

Second part, the binder before the results:

B1: Compound 22 (peptide)
peptide: H-H[Aib]EGSFTSELATILDK([γGlu-C18 diacid])QAARDFIAWLIAHKITD-OH
SMILES: CC[C@H](C)[C@H](NC(=O)[C@H](CC(C)C)NC(=O)[C@H](Cc1c[nH]c2ccccc12)NC(=O)[C@H](C)NC(=O)[C@@H](NC(=O)[C@H](Cc1ccccc1)NC(=O)[C@H](CC(=O)O)NC(=O)[C@H](CCCNC(=N)N)NC(=O)[C@H](C)NC(=O)[C@H](C)NC(=O)[C@H](CCC(N)=O)NC(=O)[C@H](CCCCNC(=O)CC[C@H](NC(=O)CCCCCCCCCCCCCCCCC(=O)O)C(=O)O)NC(=O)[C@H](CC(=O)O)NC(=O)[C@H](CC(C)C)NC(=O)[C@@H](NC(=O)[C@@H](NC(=O)[C@H](C)NC(=O)[C@H](CC(C)C)NC(=O)[C@H](CCC(=O)O)NC(=O)[C@H](CO)NC(=O)[C@@H](NC(=O)[C@H](Cc1ccccc1)NC(=O)[C@H](CO)NC(=O)CNC(=O)[C@H](CCC(=O)O)NC(=O)C(C)(C)NC(=O)[C@@H](N)Cc1c[nH]cn1)[C@@H](C)O)[C@@H](C)O)[C@@H](C)CC)[C@@H](C)CC)C(=O)N[C@@H](C)C(=O)N[C@@H](Cc1c[nH]cn1)C(=O)N[C@@H](CCCCN)C(=O)N[C@H](C(=O)N[C@H](C(=O)N[C@@H](CC(=O)O)C(=O)O)[C@@H](C)O)[C@@H](C)CC
EC50 GLP-1 (nM), cAMP AlphaScreen [1]: 0.23 nM | EC50 GLP-2 (nM), cAMP AlphaScreen [2]: 0.2 nM

B4: Compound 19 (peptide)
peptide: H-H[Aib]EGTFTSELATILDK([γGlu-C18 diacid])QAARDFIAWLIQHKITD-OH
SMILES: CC[C@H](C)[C@H](NC(=O)[C@H](Cc1ccccc1)NC(=O)[C@H](CC(=O)O)NC(=O)[C@H](CCCNC(=N)N)NC(=O)[C@H](C)NC(=O)[C@H](C)NC(=O)[C@H](CCC(N)=O)NC(=O)[C@H](CCCCNC(=O)CC[C@H](NC(=O)CCCCCCCCCCCCCCCCC(=O)O)C(=O)O)NC(=O)[C@H](CC(=O)O)NC(=O)[C@H](CC(C)C)NC(=O)[C@@H](NC(=O)[C@@H](NC(=O)[C@H](C)NC(=O)[C@H](CC(C)C)NC(=O)[C@H](CCC(=O)O)NC(=O)[C@H](CO)NC(=O)[C@@H](NC(=O)[C@H](Cc1ccccc1)NC(=O)[C@@H](NC(=O)CNC(=O)[C@H](CCC(=O)O)NC(=O)C(C)(C)NC(=O)[C@@H](N)Cc1c[nH]cn1)[C@@H](C)O)[C@@H](C)O)[C@@H](C)O)[C@@H](C)CC)C(=O)N[C@@H](C)C(=O)N[C@@H](Cc1c[nH]c2ccccc12)C(=O)N[C@@H](CC(C)C)C(=O)N[C@H](C(=O)N[C@@H](CCC(N)=O)C(=O)N[C@@H](Cc1c[nH]cn1)C(=O)N[C@@H](CCCCN)C(=O)N[C@H](C(=O)N[C@H](C(=O)N[C@@H](CC(=O)O)C(=O)O)[C@@H](C)O)[C@@H](C)CC)[C@@H](C)CC
EC50 GLP-1 (nM), cAMP AlphaScreen [1]: 0.066 nM | EC50 GLP-2 (nM), cAMP AlphaScreen [2]: 0.23 nM

B6: Compound 23 (peptide)
peptide: H-H[Aib]EGTFTSELATILDK([γGlu-C18 diacid])QAARDFIAWLIAHKITD-OH
SMILES: CC[C@H](C)[C@H](NC(=O)[C@H](CC(C)C)NC(=O)[C@H](Cc1c[nH]c2ccccc12)NC(=O)[C@H](C)NC(=O)[C@@H](NC(=O)[C@H](Cc1ccccc1)NC(=O)[C@H](CC(=O)O)NC(=O)[C@H](CCCNC(=N)N)NC(=O)[C@H](C)NC(=O)[C@H](C)NC(=O)[C@H](CCC(N)=O)NC(=O)[C@H](CCCCNC(=O)CC[C@H](NC(=O)CCCCCCCCCCCCCCCCC(=O)O)C(=O)O)NC(=O)[C@H](CC(=O)O)NC(=O)[C@H](CC(C)C)NC(=O)[C@@H](NC(=O)[C@@H](NC(=O)[C@H](C)NC(=O)[C@H](CC(C)C)NC(=O)[C@H](CCC(=O)O)NC(=O)[C@H](CO)NC(=O)[C@@H](NC(=O)[C@H](Cc1ccccc1)NC(=O)[C@@H](NC(=O)CNC(=O)[C@H](CCC(=O)O)NC(=O)C(C)(C)NC(=O)[C@@H](N)Cc1c[nH]cn1)[C@@H](C)O)[C@@H](C)O)[C@@H](C)O)[C@@H](C)CC)[C@@H](C)CC)C(=O)N[C@@H](C)C(=O)N[C@@H](Cc1c[nH]cn1)C(=O)N[C@@H](CCCCN)C(=O)N[C@H](C(=O)N[C@H](C(=O)N[C@@H](CC(=O)O)C(=O)O)[C@@H](C)O)[C@@H](C)CC
EC50 GLP-1 (nM), cAMP AlphaScreen [1]: 0.13 nM | EC50 GLP-2 (nM), cAMP AlphaScreen [2]: 0.24 nM

B7: Compound 21 (peptide)
peptide: H-H[Aib]EGTFSSELATILDK([γGlu-C18 diacid])QAARDFIAWLIAHKITD-OH
SMILES: CC[C@H](C)[C@H](NC(=O)[C@H](CC(C)C)NC(=O)[C@H](Cc1c[nH]c2ccccc12)NC(=O)[C@H](C)NC(=O)[C@@H](NC(=O)[C@H](Cc1ccccc1)NC(=O)[C@H](CC(=O)O)NC(=O)[C@H](CCCNC(=N)N)NC(=O)[C@H](C)NC(=O)[C@H](C)NC(=O)[C@H](CCC(N)=O)NC(=O)[C@H](CCCCNC(=O)CC[C@H](NC(=O)CCCCCCCCCCCCCCCCC(=O)O)C(=O)O)NC(=O)[C@H](CC(=O)O)NC(=O)[C@H](CC(C)C)NC(=O)[C@@H](NC(=O)[C@@H](NC(=O)[C@H](C)NC(=O)[C@H](CC(C)C)NC(=O)[C@H](CCC(=O)O)NC(=O)[C@H](CO)NC(=O)[C@H](CO)NC(=O)[C@H](Cc1ccccc1)NC(=O)[C@@H](NC(=O)CNC(=O)[C@H](CCC(=O)O)NC(=O)C(C)(C)NC(=O)[C@@H](N)Cc1c[nH]cn1)[C@@H](C)O)[C@@H](C)O)[C@@H](C)CC)[C@@H](C)CC)C(=O)N[C@@H](C)C(=O)N[C@@H](Cc1c[nH]cn1)C(=O)N[C@@H](CCCCN)C(=O)N[C@H](C(=O)N[C@H](C(=O)N[C@@H](CC(=O)O)C(=O)O)[C@@H](C)O)[C@@H](C)CC
EC50 GLP-1 (nM), cAMP AlphaScreen [1]: 1.8 nM | EC50 GLP-2 (nM), cAMP AlphaScreen [2]: 0.27 nM

Reference: patent US20250073311A1, “DOSAGE REGIME” (ZEALAND PHARMA A/S, priority 2021, published 2025)
